Experimental data from patent US20240124586A1 (WUXI BIOLOGICS IRELAND, published 2024).

T1: FcγRIIa (R167) (UniProt P12318 36-218, limits assumed)
T1 sequence (looked up): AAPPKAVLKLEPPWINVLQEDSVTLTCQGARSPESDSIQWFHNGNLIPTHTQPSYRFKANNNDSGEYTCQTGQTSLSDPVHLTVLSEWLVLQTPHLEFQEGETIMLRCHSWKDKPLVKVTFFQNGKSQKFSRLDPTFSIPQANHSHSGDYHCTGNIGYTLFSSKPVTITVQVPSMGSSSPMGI

T2: FcγRIIb (UniProt P31994 46-217, limits assumed)
T2 sequence (looked up): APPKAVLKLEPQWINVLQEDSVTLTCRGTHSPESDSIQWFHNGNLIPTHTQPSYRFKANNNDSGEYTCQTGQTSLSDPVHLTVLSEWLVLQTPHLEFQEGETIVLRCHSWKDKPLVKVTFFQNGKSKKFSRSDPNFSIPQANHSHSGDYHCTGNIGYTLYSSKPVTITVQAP

T3: FcγRIIa (H167) (UniProt P12318 36-218, limits assumed)
T3 sequence (looked up): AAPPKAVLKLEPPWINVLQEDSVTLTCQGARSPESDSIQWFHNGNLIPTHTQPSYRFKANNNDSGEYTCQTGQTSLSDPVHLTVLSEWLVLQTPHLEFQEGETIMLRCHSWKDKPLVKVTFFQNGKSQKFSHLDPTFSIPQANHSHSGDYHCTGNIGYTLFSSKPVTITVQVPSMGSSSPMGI


Columns and labels:
[1] = target: FcγRIIIb (UniProt O75015 17-200, limits assumed); assay: SPR (Biacore), receptor captured on anti-his chip, steady state model
FcγRIIIb, sequence (O75015 17-200 limits assumed): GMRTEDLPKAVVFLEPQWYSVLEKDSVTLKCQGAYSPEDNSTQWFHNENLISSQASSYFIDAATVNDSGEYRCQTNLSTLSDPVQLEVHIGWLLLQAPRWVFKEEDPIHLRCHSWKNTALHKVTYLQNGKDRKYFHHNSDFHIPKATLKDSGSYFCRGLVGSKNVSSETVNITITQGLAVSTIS
Description: (§1) Antibody binding affinity to FcγRs was detected using Biacore T200 (or Biacore 8K). Each receptor was captured on an anti-his antibody immobilized CM5 sensor chip (GE). Antibodies at different concentrations were injected over the sensor chip at a flow rate of 30 uL/min for an association phase of 60 s, followed by 60 s dissociation. The chip was then regenerated by 10 mM glycine (pH 1.5) after each binding cycle.
(§2) The sensorgrams of blank surface and buffer channel were subtracted from the test sensorgrams. The experimental data was fitted by 1:1 model using Langmiur analysis (for FcγRI) or steady state model (for other receptors). Molecular weight of 150 KDa was used to calculate the molar concentration of antibodies.

[2] = target: T1, FcγRIIa (R167); assay: as above
Description: as §1, §2

[3] = target: T2, FcγRIIb; assay: as above
Description: as §1, §2

[4] = target: T3, FcγRIIa (H167); assay: as above
Description: as §1, §2

[5] = target: FcγRIIIa (V176) (UniProt P08637 17-208); assay: as above
FcγRIIIa (V176), sequence (P08637 17-208 F176V limits assumed): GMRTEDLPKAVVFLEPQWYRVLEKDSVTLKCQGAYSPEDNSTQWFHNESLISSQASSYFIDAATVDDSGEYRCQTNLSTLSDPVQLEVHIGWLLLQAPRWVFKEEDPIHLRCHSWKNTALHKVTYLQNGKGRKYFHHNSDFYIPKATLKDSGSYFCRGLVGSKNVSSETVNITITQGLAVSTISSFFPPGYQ
Description: as §1, §2

[6] = target: FcγRIIIa (F176) (UniProt P08637 17-208); assay: as above
FcγRIIIa (F176), sequence (P08637 17-208 limits assumed): as the sequence (P08637 17-208 F176V limits assumed) above, with V160F counted along it
Description: as §1, §2

[7] = target: T4, FcγRI (UniProt P12314 16-288, limits assumed); assay: SPR (Biacore), receptor captured on anti-his chip, 1:1 model
T4 construct: His-tagged by the capture method
T4 sequence (P12314 16-288 limits assumed): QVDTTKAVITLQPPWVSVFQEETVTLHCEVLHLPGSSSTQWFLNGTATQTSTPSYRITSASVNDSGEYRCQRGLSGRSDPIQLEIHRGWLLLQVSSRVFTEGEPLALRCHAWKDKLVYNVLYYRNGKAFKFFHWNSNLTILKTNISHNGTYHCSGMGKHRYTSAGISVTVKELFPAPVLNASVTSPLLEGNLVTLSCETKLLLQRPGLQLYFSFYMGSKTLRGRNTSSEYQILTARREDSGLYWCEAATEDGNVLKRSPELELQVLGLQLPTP
Description: as §1, §2

[8] = target: CTLA-4 (competition assays of Example 15) (UniProt P16410 36-161, limits assumed); assay: FACS competition: antibody titrated against CD80 binding to CTLA-4
CTLA-4 (competition assays of Example 15), sequence (P16410 36-161 limits assumed): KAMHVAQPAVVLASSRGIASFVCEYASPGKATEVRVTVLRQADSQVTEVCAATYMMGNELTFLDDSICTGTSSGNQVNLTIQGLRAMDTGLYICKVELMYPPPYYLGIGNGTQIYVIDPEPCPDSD

[9] = target: T5, human PD-1 ECD mouse Fc fusion (W305-hPro1.ECD.mFc) (human, UniProt Q15116 25-170); assay: dual-binding ELISA: human PD-1 ECD coated, antibody titrated, bound antibody detected with biotinylated human CTLA-4 ECD and streptavidin-HRP
T5 construct: extracellular domain; In-house protein; also called hPD-1-ECD; human PD-1 coated on the plate
T5 sequence (Q15116 25-170): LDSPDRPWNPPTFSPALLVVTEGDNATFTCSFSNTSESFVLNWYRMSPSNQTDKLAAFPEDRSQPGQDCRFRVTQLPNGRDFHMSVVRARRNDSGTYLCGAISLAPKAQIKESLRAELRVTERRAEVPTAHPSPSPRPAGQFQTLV
Description: In order to test whether the bispecific antibodies could bind to both hPD-1 and hCTLA-4, an ELISA assay was developed as below. A 96-well ELISA plate (Nunc MaxiSorp, ThermoFisher) was coated overnight at 4° C. with 0.5 μg/ml antigen-1 (hPD-1-ECD, W305-hPro1.ECD.mFc) in carbonate-bicarbonate buffer. After a 1 hour blocking step with 2% (w/v) bovine serum albumin (Pierce) dissolved in PBS, serial dilutions of the different PD-1×CTLA-4 bispecific antibodies in PBS containing 2% BSA PBS were incubated on the plates for 1 hour at room temperature. Following the incubation, plates were washed three times with 300 μL per well of PBS containing 0.5% (v/v) Tween 20. […] After washing the plates three times, Streptavidin-HRP (Lifetechnologies, #SNN1004) (1:20000 diluted) was added and incubated on the plates for 1 hour at room temperature. After washing six times with […] per well of PBS containing 0.5% (v/v) Tween 20, 100 μL tetramethylbenzidine (TMB) substrate was added for the detection per well. The reaction was stopped after approximately 5 minutes through the addition of […] per well of 2 M HCl. The absorbance of the wells was measured at 450 nm with a multiwall plate reader (SpectraMax® M5e).

[10] = target: T6, human PD-1 on engineered CHO-S cells (W305-CHO-S.hPro1.C6) (human, UniProt Q15116 25-288); assay: FACS on human PD-1 engineered cells
T6 construct: whole, on cells; also called human PD-1 engineered cells; PD-1+ cells
T6 sequence (Q15116 25-288, change not shown): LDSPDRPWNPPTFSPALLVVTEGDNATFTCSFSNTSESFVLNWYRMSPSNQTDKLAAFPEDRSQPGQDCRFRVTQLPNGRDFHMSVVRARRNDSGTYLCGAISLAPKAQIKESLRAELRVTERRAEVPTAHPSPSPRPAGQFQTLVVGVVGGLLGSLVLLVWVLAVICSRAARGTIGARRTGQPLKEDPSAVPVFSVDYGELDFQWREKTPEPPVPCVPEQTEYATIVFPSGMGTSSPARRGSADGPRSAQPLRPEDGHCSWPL
Description: Engineered human PD-1 expressing cells W305-CHO-S.hPro1.C6 were seeded at 1×10⁵ cells/well in U-bottom 96-well plates (COSTAR 3799). Antibodies with 3.16-fold titration in 1% BSA DPBS from 200 nM to 0.002 nM were added to the cells. The plates were incubated at 4° C. for 1 hour. After wash, […] 1:125 diluted PE-labeled goat anti-human antibody (Jackson 109-115-098) was added to each well and the plates were incubated at 4° C. for 1 hour. The binding of the antibodies onto the cells was tested by flow cytometry and the mean fluorescence intensity (MFI) was analyzed by FlowJo.

[11] = target: T7, human CTLA-4 on engineered 293F cells (W316-293F.hPro1.FL) (human, UniProt P16410 36-223); assay: FACS on human CTLA-4 engineered cells
T7 construct: whole, on cells; also called human CTLA-4 engineered cells; CTLA-4+ cells
T7 sequence (P16410 36-223, change not shown): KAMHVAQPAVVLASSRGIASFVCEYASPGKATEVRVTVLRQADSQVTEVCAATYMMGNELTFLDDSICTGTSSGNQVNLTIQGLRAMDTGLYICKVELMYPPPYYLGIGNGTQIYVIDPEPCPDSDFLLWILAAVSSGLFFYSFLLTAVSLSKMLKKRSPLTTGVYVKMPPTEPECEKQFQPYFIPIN
Description: (§3) 3.16-fold titrated Abs with 1% BSA DPBS from 200 nM to 0.002 nM were added to the cells. Plates were incubated at 4° C. for 1 hour. After wash, […] 1:150 diluted PE-labeled goat anti-human antibody (Jackson 109-115-098) was added to each well and the plates were incubated at 4° C. for 1 hour. The binding of the antibodies onto the cells was tested by flow cytometry and the mean fluorescence intensity (MFI) was analyzed by FlowJo.

[12] = target: T6, human PD-1 on engineered CHO-S cells …; assay: FACS competition: antibody titrated against human PD-L1 binding to PD-1; falling curve, half-maximal value labelled EC50 on the sheet
Description: In order to test whether the bispecific antibodies could block hPD-L1 binding to hPD-1 protein, a competitive FACS was conducted. […] Plates were incubated at 4° C. for 1 hour. After wash, the binding of W315-hPro1.ECD.mFc to cell expressive human PD-1 was detected by FITC-labeled goat anti-mouse antibody (abcam 98716 1:125). The competition binding of antibodies to the cells was tested by flow cytometry and the mean fluorescence intensity (MFI) was analyzed by FlowJo.

[13] = target: T7, human CTLA-4 on engineered 293F cells …; assay: FACS on human CTLA-4 engineered cells, against benchmark BMK1
Description: as §3

Binder | Kd [1] [nM] | Kd [2] [nM] | Kd [3] [nM] | Kd [4] [nM] | Kd [5] [nM] | Kd [6] [nM] | Kd [7] [nM] | IC50 [8] [nM] | EC50 [9] [nM] | EC50 [10] [nM] | EC50 [11] [nM] | IC50 [12] [nM] | fold improvement of EC50 against the benchmark antibody [13] [fold]
T3U4.E17-2.(2).uIgG1 (E17-Design_2-QQQQ in wild type IgG1 with knobs-into-holes) (bispecific antibody, Order T3-HC / T3-LC / U4-HC / U4-LC; copies: 1 + 1 + 1 + 1) heavy 1: not shown light 1: DIVMTQSPDSLAVSLGERATINCKSSQSLLNSRTRKNYLAWYQQKPGQPPKLLIYWASTRQSGVPDRFSGSGSGTDFTLTISSLQAEDVAVYYCTQSHTLRTFGGGTKVEIKPDIQNPDPAVYQLRDSKSSDKSVCLFTDFDSQTQVSQSKDSDVYITDKCVLDMRSMDFKSNSAVAWSQKSDFACANAFQNSIIPEDTFFPSPESS heavy 2: QMQLVQSGPEVKKPGTSVKVSCKASGYAFTSYNMYWVRQARGQRLEWIGYIDPYNGDTTYNQKFKGRVTITRDMSTSTAYMELSSLRSEDTAVYYCLTTAYAMDYWGQGTLVTVSSASTKGPSVFPLAPSSKSTSGGTAALGCLVKDYFPEPVTVSWNSGALTSGVHTFPAVLQSSGLYSLSSVVTVPSSSLGTQTYICNVNHKPSNTKVDKRVEPKSCDKTHTCPPCPAPELLGGPSVFLFPPKPKDTLMISRTPEVTCVVVDVSHEDPEVKFNWYVDGVEVHNAKTKPREEQYNSTYRVVSVLTVLHQDWLNGKEYKCKVSNKALPAPIEKTISKAKGQPREPQVCTLPPSREEMTKNQVSLSCAVKGFYPSDIAVEWESNGQPENNYKTTPPVLDSDGSFFLVSKLTVDKSRWQQGNVFSCSVMHEALHNHYTQKSLSLSPGK light 2: DIQLTQSPSFLSASVGDRVTITCSASSTVNYMHWYQQKPGKAPKLLIYSTSNLASGVPSRFSGSGSGTEFTLTISSLQPEDFATYYCHQWSSYPYTFGQGTKLEIKRTVAAPSVFIFPPSDEQLKSGTASVVCLLNNFYPREAKVQWKVDNALQSGNSQESVTEQDSKDSTYSLSSTLTLSKADYEKHKVYACEVTHQGLSSPVTKSFNRGEC | 5160 | 4830 | 8070 | 3580 | 644 | 2080 | 1.3 |  |  |  |  |  | 
U6T5.G25.IgG4, bispecific anti-PD-1 x CTLA-4 (as listed in Example 15) (bispecific antibody, kept apart) heavy: not shown light 1: SYELTQPLSVSVALGQTARITCGGDNIGNKDVHWYQQKPGQAPVLVIYRDSNRPSGIPEGFSGSNSGNTATLTISRAQAGDEADYYCQVWDSIWVFGGGTKLTVLPDIQNPDPAVYQLRDSKSSDKSVCLFTDFDSQTQVSQSKDSDVYITDKCVLDMRSMDFKSNSAVAWSQKSDFACANAFQNSIIPEDTFFPSPESS light 2: EIVLTQSPDFQSVTPKEKVTITCSANSALSYMYWYQQKPDQSPKLWVHGTSNLASGVPSRFSGSGSGTDFTLTINSLEAEDAATYYCHHWSNTQWTFGGGTKVEIKRTVAAPSVFIFPPSDEQLKSGTASVVCLLNNFYPREAKVQWKVDNALQSGNSQESVTEQDSKDSTYSLSSTLTLSKADYEKHKVYACEVTHQGLSSPVTKSFNRGEC |  |  |  |  |  |  |  | 0.758 | 0.071 | 1.32 | 7.55 | 1.92 | 1.6
